Target: GST-aPKCt
Test: co-immunoprecipitation from HEK cells transfected with HA-GSK3β, GST-aPKCt and myc-p62; anti-HA IP, anti-GST blot, densitometry; with against without p62

Chain of Hemagglutinin (HA)-tagged GSK3β (enzyme) (P49841 whole entry): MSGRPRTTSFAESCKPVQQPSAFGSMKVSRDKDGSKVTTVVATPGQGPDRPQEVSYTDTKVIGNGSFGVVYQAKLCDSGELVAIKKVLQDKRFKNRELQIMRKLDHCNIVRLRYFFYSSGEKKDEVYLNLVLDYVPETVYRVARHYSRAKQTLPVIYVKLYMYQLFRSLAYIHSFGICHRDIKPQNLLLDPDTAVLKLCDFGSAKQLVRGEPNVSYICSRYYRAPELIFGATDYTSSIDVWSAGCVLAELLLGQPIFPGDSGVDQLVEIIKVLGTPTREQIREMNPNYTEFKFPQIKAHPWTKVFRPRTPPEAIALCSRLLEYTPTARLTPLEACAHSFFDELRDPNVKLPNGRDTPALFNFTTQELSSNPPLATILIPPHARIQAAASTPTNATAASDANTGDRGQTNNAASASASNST

Substance “Hemagglutinin (HA)-tagged GSK3β (enzyme)” has a fold enhancement of the interaction in the presence of p62 of 2 fold.

— patent US7608412
